Numbering of substitutions follows the chain as printed.
T1: Recombinant human MerTK human Fc Chimera protein (R&D systems, Cat #391-MR-100) (human, UniProt Q12866 26-499, limits assumed)
T1 construct: Bought; also called recombinant human MerTK protein; MerTK-Fc
T1 sequence: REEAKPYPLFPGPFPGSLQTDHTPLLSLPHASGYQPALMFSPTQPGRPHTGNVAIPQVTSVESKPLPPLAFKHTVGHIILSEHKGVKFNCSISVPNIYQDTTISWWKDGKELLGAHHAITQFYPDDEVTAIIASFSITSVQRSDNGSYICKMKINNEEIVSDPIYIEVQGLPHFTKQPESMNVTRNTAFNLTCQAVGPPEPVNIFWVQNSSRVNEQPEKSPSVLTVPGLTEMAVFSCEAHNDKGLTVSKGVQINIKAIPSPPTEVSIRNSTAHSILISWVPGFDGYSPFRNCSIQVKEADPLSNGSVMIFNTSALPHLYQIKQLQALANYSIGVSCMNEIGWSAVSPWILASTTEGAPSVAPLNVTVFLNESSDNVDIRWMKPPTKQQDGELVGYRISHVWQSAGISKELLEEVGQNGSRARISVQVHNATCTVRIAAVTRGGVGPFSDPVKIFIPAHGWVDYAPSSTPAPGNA

T2: murine MerTK overexpressed on CHO cells (CHO-muMerTK OE cells) (mouse, UniProt Q60805 19-994)
T2 construct: whole, on cells
T2 sequence (looked up): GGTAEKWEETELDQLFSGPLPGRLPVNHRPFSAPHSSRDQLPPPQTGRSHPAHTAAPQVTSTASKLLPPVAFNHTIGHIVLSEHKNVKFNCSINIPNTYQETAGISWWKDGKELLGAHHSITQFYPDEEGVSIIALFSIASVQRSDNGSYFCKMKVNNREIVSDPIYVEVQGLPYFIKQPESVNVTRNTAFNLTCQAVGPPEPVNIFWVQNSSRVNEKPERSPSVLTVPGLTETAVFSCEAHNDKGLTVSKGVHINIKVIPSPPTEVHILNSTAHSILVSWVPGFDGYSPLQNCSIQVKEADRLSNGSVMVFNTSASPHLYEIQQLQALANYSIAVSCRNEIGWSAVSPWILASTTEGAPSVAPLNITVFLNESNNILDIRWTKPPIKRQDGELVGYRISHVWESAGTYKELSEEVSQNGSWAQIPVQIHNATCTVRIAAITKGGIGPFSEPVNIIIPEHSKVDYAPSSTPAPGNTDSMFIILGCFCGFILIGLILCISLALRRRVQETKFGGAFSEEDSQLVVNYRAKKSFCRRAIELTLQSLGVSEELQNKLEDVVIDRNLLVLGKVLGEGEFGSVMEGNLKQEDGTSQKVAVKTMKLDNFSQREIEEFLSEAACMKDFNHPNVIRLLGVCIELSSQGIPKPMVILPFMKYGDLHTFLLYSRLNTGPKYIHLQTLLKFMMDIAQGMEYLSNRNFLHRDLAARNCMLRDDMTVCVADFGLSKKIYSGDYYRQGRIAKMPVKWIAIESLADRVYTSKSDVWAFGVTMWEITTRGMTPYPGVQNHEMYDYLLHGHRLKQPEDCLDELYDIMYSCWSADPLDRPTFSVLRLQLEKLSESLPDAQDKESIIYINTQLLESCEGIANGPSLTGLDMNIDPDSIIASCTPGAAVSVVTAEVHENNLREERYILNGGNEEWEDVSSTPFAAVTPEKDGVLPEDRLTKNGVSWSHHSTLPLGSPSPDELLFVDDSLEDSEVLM

B1: MTK-18 (antibody, human IgG1, V domains shown)
VH: QIQLVQSGPELKKPGETVKISCKASGYTFTHYGMTWVKQAPGKGLKWMGWINTYTGEPTYADDFKGRFAFSLETSASTAYLQINNLKNEDTATYFCARGGGQLGLRPLDYWGQGTTLTVSS
VL: DIQMTQTTSSLSASLGDRVTFSCRASQAISNYLNWYQQKPDGTVKLLIYYTSRLHSGVPSRFSGSGSGTDYSLTISNLEQEDIATYFCQQGNTLPWTFGGGTKLEIK
B2: MTK-17 (antibody, human IgG1, V domains shown)
VH: QIQLVQSGPELKKPGETVKISCKASGYTFTNFGMNWVKQAPGKGLKWMGWINTYTGEPTYADDFKGRFAFSLETSASTAYLQINNLKNEDTATYFCSRGAVLRAGAMDCWGQGTSVTVSS
VL: DIQMTQSSSYLSVSLGGRVTITCKASDHINNWLAWYQQKPGNAPRLLISGATSLETGVPSRFSGSGSGKDYTLSITSLQTEDVATYYCQQYWSTPRTFGGGTKLEIK
B3: MTK-03 (antibody, human IgG1, V domains shown)
VH: DVQLQESGPGLVKPSQSLSLTCSVTGYSITSGYYWNWIRQFPGNTLEWMGYMSFDGDNKFNPSLKNRISITRDTSKNQFFLRLNSVTTEDTATYYCARGGYNYGSTEANWGQGTLVTVSA
VL: QIVLTQSPAIMSAFPGEKVTITCSASSSVNYMHWFQQKPGTSPKLWIYSTSNLASGVPARFSGSGSGTSYSLTISRMEAEDAATYYCQQRSSYPFTFGSGTKLEIK
B4: MTK-07 (antibody, human IgG1, V domains shown)
VH: B3 VH with A120T
VL: B3 VL with N30T, Y48F
B5: MTK-21 (antibody, human IgG1, V domains shown)
VH: B1 VH with H31N, Y32F, K38R, K43M, G44D, T59K, F70L, N84T, L86F, Q102R
VL: B1 VL with F21I, A28D, S30N, R53S, S76T, K103R
B6: MTK-16 (antibody, human IgG1, V domains shown)
VH: LIQLVQSGPELKKPGETVKISCKASGYTFTNHGMNWVKQDPGKGLKWMGWINTYTGEPTYADDFKGRFVFSMETSASAAFLQINNLKNEDTATYFCARKGVTAARYFDYWGQGTTLTVSS
VL: DIVMTQSPKFMSTSVGDRVSITCKASQNVRTAVAWYKKKPGQSPKALINLASNRHTGVPDRFTGSGSGTDFTLTISNVQSEDLADYFCLQHWNYPLTFGGGTKLEIK
B7: MTK-33 (antibody, human IgG1, V domains shown)
VH: QVQLQQPGPELVRPGTSVKLSCKASGYTFTSYWMHWIKQRPGQGLEWIGVIDPSDNYINYNQKFKGKATLTVDTSSSTAYLQLSSLTSEDSAVYYCAREAGTRGYFDYWGQGTTLTVSS
VL: SIVMTQTPKFLLVSAGDRVIITCKASQSVSNTVAWYQQKPGQSPKLLIYYASNRYTGVPDRFTGSGYGTDFTFTISTVQAEDLAVYFCQQDYRSPFTFGSGTQLEMK
B8: MTK-30 (antibody, human IgG1, V domains shown)
VH: QVQLQQPGTELVRPGASVKLSCKASGYTFTSYWMHWVKQRPGQGLEWIGNLNPNNGGTYYNEKFKSKATLTVDKSSSTAYMQLSSLTSEDSAVYYCARQILLYFDYWGQGTTLTVSS
VL: DVLMTQTPLSLPVSLGDQASISCRSSQSIVHSNGDTYLEWYLQKPGQSPKLLIYKVSNRFSGVPDRFSGSGSGTDFTLKISRVEAEDLGVYYCFQGSHVPWTFGGGTKLEIK
B9: MTK-31 (antibody, human IgG1, V domains shown)
VH: QIQLVQSGPELKKSGETVKISCKASGYTFTSYGMSWVKQAPGKGLKWMGWINTYSGVPTYADDFKGRFAFSLETSASTAYLQINNLKNEDTATYFCASLSYDGSLYHAMDYWGQGTSVTVSS
VL: B8 VL with L3S, C23S, S28T, D35N
B10: MTK-24 (antibody, human IgG1, V domains shown)
VH: QVQLQQPGAELVKPGASVKLSCKASGYTFTSYWMHWVKQRPGQGLEWIGMIHPNINTNYNEKFKSKATLTVDISSSTAYMQLSSLTSEDSAVYYCAKRSPYSNYDWYFDVWGTGTTVTVSS
VL: DIQMTQSPASLSVSVGETVTITCRASENIYSNLAWYQQKQGKSPQLLVYAATNLADGVPSRFSGSGSGTQYSLKINSLQSEDFGSYYCQHFWGTPLTFGAGTKLELK
B11: MTK-29 (antibody, human IgG1, V domains shown)
VH: QIQLVQSGPELKKPGETVKISCKSSGFTFTTYGMSWVKQAPGKGLKWMGWINTYSGVPTYTDDFKGRFAFSLETSASTASLQINNLKNEDTATYFCARYTNYGYFDYWGQGTTLTVSS
VL: QIVLSQSPAILSASPGEKVTMTCRATSSVGYMHWYQQKPGSSPKPWIYATSNLASGVPARFSGSGSGTSYSLTISRVEAEHAATYYCQQWGSNPFTFGSGTKLEIK

Biological target: T1, Recombinant human MerTK human Fc …
Assay: competition ELISA: His-tagged ProS (20 ug/ml) binding to captured human MerTK-Fc, anti-His-HRP detection; blocked ligand ProS
Procedure: (§1) Rabbit anti-human IgG polyclonal antibody (Jackson ImmunoResearch, Cat #309-005-008) was captured to a high-protein binding plate at 2 μg/ml 4° C. overnight. After washing with 0.05% Tween20 in PBS three times, 5% BSA in PBS was added for 1 hour. Recombinant human MerTK human Fc Chimera protein (R&D systems, Cat #391-MR-100) was added at 2 μg/ml for 1 hour and the plates were then washed. Anti-MerTK antibodies were titrated to final concentration range of between 66.6 nM to 4 pM and then 40 μl of serially diluted antibody and 40 μl of His tag-conjugated recombinant Gas6 protein (R&D systems, Cat #885-GSB-050) at 3 μg/ml or His tag-conjugated recombinant ProS protein (R&D systems, Cat #9489-PS-100) at 20 μg/ml. After a further incubation for 1 hour, plates were washed and incubated for 1 hour with HRP-conjugated anti-6×His tag antibody (Abcam, Cat #ab1187). Plates were then washed and an HRP substrate (TMB) was used to develop the plates. After sufficient color change was observed, the reaction was stopped by adding 50 μl 2N H₂SO₄ and the OD was measured using a spectrophotometer (BioTek).

| IC50 (read off the curve) | Binder |
| --- | --- |
| ~5 nM | B1 |
| 5 to 8 nM | B2 |
| ~4 nM | B3 |
| ~3 nM | B4 |

Biological target: T1, Recombinant human MerTK human Fc …
Assay: competition ELISA: His-tagged Gas6 (3 ug/ml) binding to captured human MerTK-Fc, anti-His-HRP detection; blocked ligand Gas6
Procedure: as §1

| IC50 (read off the curve) | Binder |
| --- | --- |
| ~6 nM | B5 |
| ~7 nM | B6 |
| ~8 nM | B4 |

Biological target: T2, murine MerTK overexpressed on CHO cells …
Assay: flow cytometry on CHO-muMerTK OE cells, Prism fit
Procedure: To determine whether recombinant anti-human MerTK antibodies of the present disclosure bind to human MerTK endogenously expressed on SK-MEL-5 cells and to CHO cells overexpressing mouse MerTK (CHO-muMerTK OE cells), the following experiments were performed. SK-MEL-5 cells and CHO-muMerTK OE cells were plated at 40,000 cells/well. Anti-MerTK antibodies were titrated to a final concentration range of between 66.6 nM to 4 pM and then added to the cells. After 30 min on ice, cells were washed and then stained with APC-conjugated mouse anti-human Kappa antibody (Southern Biotech Cat #9230-11, Birmingham, Ala.) and a viability die (Life Technologies) in the presence of Fc block solution on ice for 30 minutes, and then washed twice with cold FACS buffer (2% FBS in PBS). Cells were fixed with 4% paraformaldehyde in PBS. Stained cells were acquired on a BD FACS Canto II cytometer and the mean fluorescence intensity (MFI) was calculated with FlowJo software and K value was calculated with Prism software. […] A lower Kd value reflects higher binding of antibody to cells.

| Kd | Binder |
| --- | --- |
| 0.53 nM | B7 |
| 0.24 nM | B8 |
| 2.91 nM | B9 |
| 0.22 nM | B10 |
| 5.22 nM | B11 |

From patent US20210261685A1 (Alector, published 2021)
